In PMC8309162, “Identification and Functional Characterization of Genes Encoding Phenylacetaldehyde Reductases That Catalyze the Last Step in the Biosynthesis of Hydroxytyrosol in Olive” (Plants, 2021) one finds Km data, which are given here for two substances.

As a reminder, the Km is the concentration of substrate that gives half-maximal velocity.

The test system of this series is T1, O=CCc1ccc(O)c(O)c1.
T1 construct: tag cleavage not mentioned
The experiment in a line: HPLC quantification of hydroxytyrosol formed. It counts as biochemical, Olea europaea. As to conditions: 0.25-8 mM substrate, Michaelis-Menten, standard assay 5 mM NADPH, 50 mM Tris-HCl pH 8.0, 30 °C (pH of the kinetic run not stated; optimum pH 6.5).

Sequence of OePAR1.1 (Olea europaea) (chain, as listed by the source): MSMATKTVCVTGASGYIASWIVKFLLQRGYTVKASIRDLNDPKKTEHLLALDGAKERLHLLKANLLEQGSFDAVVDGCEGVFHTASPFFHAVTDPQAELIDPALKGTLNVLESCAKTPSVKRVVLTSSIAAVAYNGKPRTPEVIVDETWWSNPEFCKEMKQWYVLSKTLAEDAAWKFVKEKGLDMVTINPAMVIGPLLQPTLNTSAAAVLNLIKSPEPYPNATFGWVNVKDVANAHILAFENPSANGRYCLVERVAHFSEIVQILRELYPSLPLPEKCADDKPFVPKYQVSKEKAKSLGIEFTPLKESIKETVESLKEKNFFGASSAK
Sequence of OePAR1.2 (Olea europaea) (chain, as listed by the source): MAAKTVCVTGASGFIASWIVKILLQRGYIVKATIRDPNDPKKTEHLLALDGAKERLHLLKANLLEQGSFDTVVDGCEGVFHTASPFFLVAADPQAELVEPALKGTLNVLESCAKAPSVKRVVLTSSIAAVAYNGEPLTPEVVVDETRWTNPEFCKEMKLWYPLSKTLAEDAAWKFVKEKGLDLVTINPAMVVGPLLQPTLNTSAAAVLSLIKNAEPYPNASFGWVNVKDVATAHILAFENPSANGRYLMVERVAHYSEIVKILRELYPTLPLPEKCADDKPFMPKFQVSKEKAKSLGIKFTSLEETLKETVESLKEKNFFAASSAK

Turning to OePAR1.1 (Olea europaea), the Km came out at 600 µM.
The same measure for OePAR1.2 (Olea europaea): 800 µM.
